Patent US8822407B2, “Preparation of conjugates comprising adenine derivatives and allergenic proteins and their use for specific immunotherapy of allengenic diseases” (Universita' Degli Studi di Firenze, priority 2010, dated 2014)

T1: TLR8 (Homo sapiens, UniProt Q9NR97)
T1 construct: expressed in transfected cells; host or cells: HEK293 (transient Nucleofection, Amaxa)
T1 sequence (Q9NR97 27-1041): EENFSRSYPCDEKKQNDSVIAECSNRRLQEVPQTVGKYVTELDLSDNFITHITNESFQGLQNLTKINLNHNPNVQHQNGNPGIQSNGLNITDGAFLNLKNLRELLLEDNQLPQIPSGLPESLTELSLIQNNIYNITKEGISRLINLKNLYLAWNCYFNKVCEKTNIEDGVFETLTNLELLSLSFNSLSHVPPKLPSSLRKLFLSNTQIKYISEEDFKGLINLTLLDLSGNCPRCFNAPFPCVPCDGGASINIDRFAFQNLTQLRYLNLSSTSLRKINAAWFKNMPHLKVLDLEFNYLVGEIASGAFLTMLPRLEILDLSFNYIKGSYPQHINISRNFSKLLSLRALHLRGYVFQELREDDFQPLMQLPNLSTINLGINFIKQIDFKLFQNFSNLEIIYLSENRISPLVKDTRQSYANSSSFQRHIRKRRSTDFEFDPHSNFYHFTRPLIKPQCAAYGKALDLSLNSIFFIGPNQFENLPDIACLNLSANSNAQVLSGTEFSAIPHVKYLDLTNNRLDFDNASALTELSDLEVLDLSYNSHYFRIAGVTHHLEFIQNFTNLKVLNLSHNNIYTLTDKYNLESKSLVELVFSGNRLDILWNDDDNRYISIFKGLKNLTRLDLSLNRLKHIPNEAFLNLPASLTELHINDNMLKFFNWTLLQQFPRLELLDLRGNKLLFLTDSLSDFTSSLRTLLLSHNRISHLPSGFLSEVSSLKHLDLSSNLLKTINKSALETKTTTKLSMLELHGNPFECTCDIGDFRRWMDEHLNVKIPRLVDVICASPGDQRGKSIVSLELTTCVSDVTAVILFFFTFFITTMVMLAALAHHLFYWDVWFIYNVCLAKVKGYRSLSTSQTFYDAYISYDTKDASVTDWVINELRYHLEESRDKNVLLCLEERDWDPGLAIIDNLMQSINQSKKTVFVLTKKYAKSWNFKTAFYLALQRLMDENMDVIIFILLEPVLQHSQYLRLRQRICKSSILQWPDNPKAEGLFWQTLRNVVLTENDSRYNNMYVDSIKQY

B1: nDer p2: purified natural allergen Der p2, major allergen from the house dust mite Dermatophagoides pteronyssinus (protein, UniProt P49278 18-146, looked up)
Mite group 2 allergen Der p 2: DQVDVKDCANHEIKKVLVPGCHGSEPCIIHRGKPFQLEAVFEANQNTKTAKIEIKASIDGLEVDVPGIDPNACHYMKCPLVKGQQYDIKYTWNVPKIAPKSENVVVTVKVMGDDGVLACAIATHAKIRD
modifications: natural purified
notes: purified natural allergen Der p2, major allergen from the house dust mite Dermatophagoides pteronyssinus

Key:
TLR8 = target: T1, TLR8; assay: TLR8-transfected HEK293 cells, NF-kB luciferase reporter; assay type: cell-based; settings: R-848 2 μg/ml; data not shown
Method: HEK293 cells are detached by trypsin from the plastic surface of the culture bottle, extensively washed with calcium and magnesium-free PBS, counted and adjusted at the concentration 1×10^6 cells/tube in polypropylene V-bottomed tubes. After the final wash, the cells are pelleted and 100 μl transfection buffer (Amaxa) is added together with […], TLR7, TLR8 or TLR9-encoding and ELAM-1 promoter NF-kB luciferase reporter plasmids. The mixture thus obtained is transferred in special cuvettes and transient transfection is obtained in a special apparatus which is able to directly introduce genetic material into the nucleus (Nucleofection®, Amaxa GmbH). The cells are then recovered and cultured at 1×10^5/ml in 48-flat bottomed plates in E-MEM medium plus 5% foetal calf serum for 18 hrs. […] Finally the luciferase activity is measured in the cellular lysates by a commercial kit (Promega).

CRTH2 cells = assay: Phenotype of allergen-specific CRTH2 cells; assay type: cell-based, human; settings: allergen 10 μg/ml, PMA and ionomicin
Method: Mononuclear cells from peripheral blood (MNC) are isolated by density gradient (Ficoll-Hypaque) using buffy coats from Dermatophagoides pteronyssinus-sensitized donors (Servizio Immunotrasfusionale e terapie cellulari, Azienda Ospedaliero Universitaria Pediatrica A. Meyer, Firenze). 500×10^6 MNC are separated by the addition of 500 μl anti-CRTH2 monoclonal antibody for 20 min at room temperature, then extensively washed and incubated again with a secondary polyclonal antibody bound to iron microbeads and finally positively selected on a magnetic column (LS column). 10×10^6 cells are recovered by positive selection, extensively washed with sterile calcium and magnesium-free PBS buffer and cultured at the concentration 1×10^6/ml/well in complete medium plus 5% human AB serum in 24-flat bottomed plates. As stimulants, unconjugated allergens (DP or nDer p2) or conjugates (DP-conj or nDer p2-conj) (all at 10 μg/ml) have been used. Cultures have been incubated for 6 days at 37° C. in 5% CO2 humidified atmosphere and further expanded with rIL-2 25 UI/ml until 14 days when T cell blasts are collected, extensively washed, counted, adjusted at 1×10^6/ml concentration and polyclonally stimulated with PMA and ionomicin as already described to assess the intracellular production of IL-4 and IFN-gamma.

[1] = test system: allergen-specific T cell lines; assay: Functional phenotype of allergen-specific cells with different ratios between allergen and modified adenine; assay type: cell-based, human; settings: T cell lines from atopic donors, Example 5 step d

| NF-κB expression in TLR8-transfected HEK293 cells (TLR8) | Molecule | % of cells expressing IFN-gamma+ (CRTH2 cells; Donor #3, CRTH2 cells) [%] | % of cells expressing IL-4+ (CRTH2 cells; Donor #3, CRTH2 cells) [%] | % of cells expressing IL-4+ IFN-gamma+ (CRTH2 cells; Donor #3, CRTH2 cells) [%] | % of cells expressing IFN-gamma+ (CRTH2 cells; Donor #4, CRTH2 cells) [%] | % of cells expressing IL-4+ (CRTH2 cells; Donor #4, CRTH2 cells) [%] | % of cells expressing IL-4+ IFN-gamma+ (CRTH2 cells; Donor #4, CRTH2 cells) [%] | % of cells expressing IFN-gamma+ [1] [%] | % of cells expressing IL-4+ [1] [%] |
| --- | --- | --- | --- | --- | --- | --- | --- | --- | --- |
| able to induce NF-κB expression | CCOCc1nc2c(N)nc3ccccc3c2n1CC(C)(C)O [Conj R-848, reference compound] | – | – | – | – | – | – | – | – |
| – | B1 | 5.8 | 47.6 | 1.3 | 2.0 | 78.2 | 2.3 | 5 | 55.5 |
